Laboratory results from patent US20180155451A1 (published 2018).

T1: FcγRIIb extracellular domain with C-terminal His tag (human, UniProt P31994 43-217)
T1 construct: extracellular domain; also called FcgRIIb; 2b; not shown: His tag attached to the C terminus
T1 sequence (looked up): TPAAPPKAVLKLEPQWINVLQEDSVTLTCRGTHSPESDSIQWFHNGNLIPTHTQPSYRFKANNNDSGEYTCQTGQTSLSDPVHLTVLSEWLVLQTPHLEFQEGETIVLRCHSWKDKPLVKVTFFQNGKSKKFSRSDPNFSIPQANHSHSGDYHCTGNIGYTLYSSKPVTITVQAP

T2: FcγRIIb (human, UniProt P31994 43-217)
T2 construct: extracellular domain; Soluble extracellular domain with C-terminal His tag, used as analyte in Biacore; also called FcgRIIb; 2b; not shown: His tag attached to the C terminus
T2 sequence (looked up): T1 sequence (looked up)

B1: GpH7-A5/GpH7-B3 variant A327_01G/GpL16-k0 (antibody, human IgG1, kappa)
heavy 1: not shown
heavy 2: not shown
light: DIVMTQSPLSLPVTPGEPASISCQASESLVHSNRNTYLHWYLQKPGQSPQLLIYKVSNRFSGVPDRFSGSGSGTDFTLKISRVEAEDVGVYYCSQNTHVPPTFGQGTKVEIERTVAAPSVFIFPPSDEQLKSGTASVVCLLNNFYPREAKVQWKVDNALQSGNSQESVTEQDSKDSTYSLSSTLTLSKADYEKHKVYACEVTHQGLSSPVTKSFNRGEC
notes: Heterodimerized IgG1; alteration in one H chain only; also called He Ab
B2: GpH7-A5/GpH7-B3 variant A327_14T/GpL16-k0 (antibody, human IgG1, kappa)
heavy 1: not shown
heavy 2: not shown
light: B1 light
notes: as for B1
B3: GpH7-A5/GpH7-B3 variant A327_10E/GpL16-k0 (antibody, human IgG1, kappa)
heavy 1: not shown
heavy 2: not shown
light: B1 light
notes: as for B1
B4: GpH7-A5/GpH7-B3 variant A327_15Y/GpL16-k0 (antibody, human IgG1, kappa)
heavy 1: not shown
heavy 2: not shown
light: B1 light
notes: as for B1
B5: GpH7-A5/GpH7-B3 variant A327_08L/GpL16-k0 (antibody, human IgG1, kappa)
heavy 1: not shown
heavy 2: not shown
light: B1 light
notes: as for B1
B6: GpH7-A5/GpH7-B3 variant A327_03V/GpL16-k0 (antibody, human IgG1, kappa)
heavy 1: not shown
heavy 2: not shown
light: B1 light
notes: as for B1
B7: GpH7-A5/GpH7-B3 variant Y300_05P/GpL16-k0 (antibody, human IgG1, kappa)
heavy 1: not shown
heavy 2: not shown
light: B1 light
notes: as for B1
B8: GpH7-A5/GpH7-B3 variant S298_05P/GpL16-k0 (antibody, human IgG1, kappa)
heavy 1: not shown
heavy 2: not shown
light: B1 light
notes: as for B1
B9: GpH7-A5/GpH7-B3 variant P238_19Q/GpL16-k0 (antibody, human IgG1, kappa)
heavy 1: not shown
heavy 2: not shown
light: B1 light
notes: Heterodimerized IgG1; mutation in the GpH7-B3 H chain only; also called He Ab
B10: GpH7-A5/GpH7-B3 variant P238_16H/GpL16-k0 (antibody, human IgG1, kappa)
heavy 1: not shown
heavy 2: not shown
light: B1 light
notes: as for B9
B11: GpH7-A5/GpH7-B3 variant S239_07I/GpL16-k0 (antibody, human IgG1, kappa)
heavy 1: not shown
heavy 2: not shown
light: B1 light
notes: as for B9
B12: GpH7-A5/GpH7-B3 variant P238_20W/GpL16-k0 (antibody, human IgG1, kappa)
heavy 1: not shown
heavy 2: not shown
light: B1 light
notes: as for B9
B13: GpH7-A5/GpH7-B3 variant N325_08L/GpL16-k0 (antibody, human IgG1, kappa)
heavy 1: not shown
heavy 2: not shown
light: B1 light
notes: as for B9
B14: GpH7-A5/GpH7-B3 variant S239_03V/GpL16-k0 (antibody, human IgG1, kappa)
heavy 1: not shown
heavy 2: not shown
light: B1 light
notes: as for B9
B15: GpH7-A5/GpH7-B3 variant S239_06M/GpL16-k0 (antibody, human IgG1, kappa)
heavy 1: not shown
heavy 2: not shown
light: B1 light
notes: as for B9
B16: GpH7-A5/GpH7-B3 variant S239_05P/GpL16-k0 (antibody, human IgG1, kappa)
heavy 1: not shown
heavy 2: not shown
light: B1 light
notes: as for B9

target: T3, FcγRIIIa extracellular domain with C-terminal His tag (human, UniProt P08637 17-208); experiment: SPR (Biacore); He/Con_3a divided by He/Con_2b (reference: binding to FcγRIIb)
T3 construct: extracellular domain; also called FcgRIIIa; 3a; not shown: His tag attached to the C terminus
T3 sequence (P08637 17-208): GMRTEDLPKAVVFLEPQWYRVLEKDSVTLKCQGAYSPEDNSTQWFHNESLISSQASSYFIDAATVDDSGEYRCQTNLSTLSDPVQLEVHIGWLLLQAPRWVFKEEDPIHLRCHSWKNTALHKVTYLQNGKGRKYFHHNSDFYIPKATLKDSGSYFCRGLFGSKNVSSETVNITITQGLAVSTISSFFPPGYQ
Description: (§1) Analysis of interaction between objective antibody and the FcγR was carried out using Biacore T100 (GE Healthcare). HBS-EP+ (GE Healthcare) was used as the running buffer, and the measurement temperature was set to 25° C. Chips produced by immobilizing the antigen peptide by the amine coupling method to a Series S Sencor Chip CM5 (GE Healthcare), or alternatively, chips produced by allowing preliminarily biotinylated antigen peptides to interact with and immobilize onto a Series S Sensor Chip SA (certified) (GE Healthcare) were used. Antibodies of interest were captured onto an antigen peptide-immobilized chip, and allowed to interact to each FcγR diluted with running buffer. To regenerate and repeatedly use the chip, the antibodies captured on the chip were washed off by reacting 10 mM glycine-HCl, pH 1.5.
(§2) The FcγR-binding activity of each antibody was assessed primarily using as an indicator the FcγR-binding activity and dissociation constant for FcγR.

He_3a/2b (IIIa/IIb) [ratio]	Binder
0.63	B1
0.46	B2
0.49	B3
0.77	B4
0.67	B5
0.48	B6
0.38	B7

target: T1, FcγRIIb extracellular domain with …; experiment: SPR (Biacore), relative binding
Description: as §1, §2

He/Con_2b (IIb binding)	Binder
11.9 % of GpH7-A5/GpH7-B3/GpL16-k0 (=100)	B8
116 % of GpH7-A5/GpH7-B3/GpL16-k0 (=100)	B1
89.4 % of GpH7-A5/GpH7-B3/GpL16-k0 (=100)	B2
140 % of GpH7-A5/GpH7-B3/GpL16-k0 (=100)	B3
60.8 % of GpH7-A5/GpH7-B3/GpL16-k0 (=100)	B4
63.1 % of GpH7-A5/GpH7-B3/GpL16-k0 (=100)	B5
94.7 % of GpH7-A5/GpH7-B3/GpL16-k0 (=100)	B6

target: T3, FcγRIIIa extracellular domain with …; experiment: SPR (Biacore), relative binding
Description: as §1, §2

He/Con_3a (IIIa binding)	Binder
72.4 % of GpH7-A5/GpH7-B3/GpL16-k0 (=100)	B1
41.4 % of GpH7-A5/GpH7-B3/GpL16-k0 (=100)	B2
68.6 % of GpH7-A5/GpH7-B3/GpL16-k0 (=100)	B3
46.8 % of GpH7-A5/GpH7-B3/GpL16-k0 (=100)	B4
42 % of GpH7-A5/GpH7-B3/GpL16-k0 (=100)	B5
45.8 % of GpH7-A5/GpH7-B3/GpL16-k0 (=100)	B6
2.8 % of GpH7-A5/GpH7-B3/GpL16-k0 (=100)	B7

target: T2, FcγRIIb; experiment: SPR (Biacore), antibody captured on antigen peptide, FcγR as analyte; relative to GpH7-A5/GpH7-B3/GpL16-k0 = 100

He/Con_2b	Binder
110 % of control	B9
115 % of control	B10
107 % of control	B11
123 % of control	B12
197 % of control	B13
108 % of control	B14
101 % of control	B15
102 % of control	B16

target: T4, FcγRIa (human, UniProt P12314 16-292); experiment: as above
T4 construct: extracellular domain; Soluble extracellular domain with C-terminal His tag, used as analyte in Biacore; also called FcgRI; 1a; not shown: His tag attached to the C terminus
T4 sequence (P12314 16-292): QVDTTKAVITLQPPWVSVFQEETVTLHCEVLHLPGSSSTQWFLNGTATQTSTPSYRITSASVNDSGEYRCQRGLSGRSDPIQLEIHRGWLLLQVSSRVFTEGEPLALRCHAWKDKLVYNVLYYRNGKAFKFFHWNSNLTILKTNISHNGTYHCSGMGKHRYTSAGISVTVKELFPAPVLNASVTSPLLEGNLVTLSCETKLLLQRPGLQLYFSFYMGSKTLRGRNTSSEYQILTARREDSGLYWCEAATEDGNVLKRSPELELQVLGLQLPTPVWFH

He/Con_1a	Binder
97.6 % of control	B9
96 % of control	B10
97.8 % of control	B11
99.9 % of control	B12
97.5 % of control	B13
95.9 % of control	B14
99 % of control	B15
85.3 % of control	B16
